Measurements reported in PMC9051087.
Where “and” joins values, the source holds several entries; their conditions need not be identical. Equal values may be shown once. Values belong to the substance of their own block, whether it stands above or below them.

What was measured:
[1] = biological target: Planctomycetes bacterium HARP (homolog of Aquifex RNase P) (Planctomycetes bacterium GWF2_40_8); test: SEC; PbHARP wild type and mutants; Superdex 200 Increase 10/300 GL, 20 mM Tris-HCl pH 8.0, 300–500 mM salt for the wild type (it precipitates at lower salt); 300 ug protein, 0.4 mL/min
[2] = biological target: Planctomycetes bacterium HARP (homolog of Aquifex RNase P) (Planctomycetes bacterium GWF2_40_8); test: cross-linking; BS3 (0, 0.01, 0.03 mM), 25 °C 1 h, 37.6 uM PbHARP without or with 45.1 uM His-7bp pre-tRNA and 10 mM CaCl2; 20 mM HEPES pH 7.9, 500 mM NaCl; SDS-PAGE
[3] = biological target: Thermococcus celer HARP (Thermococcus celer); test: SEC; TcHARP at higher salt (200–500 mM); Superdex 200 Increase 10/300 GL, 20 mM Tris-HCl pH 8.0
[4] = biological target: PbHARP A118E/A121E mutant (Planctomycetes bacterium GWF2_40_8); test: SEC; PbHARP wild type and mutants; Superdex 200 Increase 10/300 GL, 20 mM Tris-HCl pH 8.0, 300–500 mM salt for the wild type (it precipitates at lower salt); 300 ug protein, 0.4 mL/min

- stoichiometry N [1]: 2
- stoichiometry N [2]: 2 and 4
Substance: Planctomycetes bacterium HARP (homolog of Aquifex RNase P) (enzyme)

- stoichiometry N [3]: 2
Substance: Thermococcus celer HARP (enzyme)

- stoichiometry N [4]: 2
Substance: PbHARP A118E/A121E mutant (enzyme)
